According to publication PMC9080080 (Cell Reports, 2022):

Target: SARS-CoV-2 RBD protein (Severe acute respiratory syndrome …, UniProt P0DTC2)
Test: ELISA

Row | Binder | binding result
1 | XMA01 (antibody, V domains shown) VH: EVQLVESGGGLVQPGGSLRLSCSASGFTFSSYAMHWVRQAPGKGLEYVSSISSNGGSTYYADSVKGRFTISRDNSKNTLYLQMSSLRVEDAAVYYCVKHYQQQLLWGGPDVWGQGTTVTVSS VL: DIQMTQSPVSLSASVGDRVTITCRASQSISTWLAWYQQKPGKAPKLLIYETSSLESGVPSRFSGSGSGTEFTLTISSLQPDDFATYYCQQFNSYPWTFGQGTKVEIK | binds
2 | XMA09 (antibody, V domains shown) VH: QVQLVQSGAEVKKPGSSVKVSCKASGGTFSSFAISWVRQAPGQGLEWMGGIIPIYGTANYAQKFQGRVTITADESTSTAYMDLSSLRSEDTAVYYCARDGSSTYYPHNWFDPWGQGTLVTVSS VL: QSVLTQPPSVSGAPGQRVTISCTGSSSNIGSGYDVHWYQQLPGTAPKLLIYGNSNRPSGVPDRFSGSKSGTSASLAITGLQAEDEADYYCQSYDSSLSGVFGTGTKVTVL | binds
3 | XMA04 (antibody, V domains shown) VH: EVQLVESGGGVVQPGRSLRLSCAASGFTFRTYAMHWVRQAPGKGLEWVAVMWNDGSNKYYADSVKGRFTISRDNSKNTLYLEMNSLRAEDTAVYYCAREGVAAAGSSSDAFDIWGQGTMVTVSS VL: DIQMTQSPSSLSASVGDRVTITCRASQSISNFLNWYQQKPGKAPKLLIYAASSLQSGVPSRFSGSGSGTDFTLTISSLQPEDFATYYCQQSYSTLYSFGQGTKLEIK | binds
